The values below come from patent publication US20090228996A1, “Means and Methods for influencing Interactions Between Dc-Sign and Dc-Sign Ligands” (priority 2006, published 2009).

Common to all, as to conditions: major milk proteins at 1/20 dilution of physiological concentration in human milk
The target in one assay is T1, DC-SIGN-Fc (Homo sapiens, UniProt Q9NNX6).
T1 construct: the extracellular portion of DC-SIGN (amino acids 64 to 404)
T1 sequence (Q9NNX6 64-404): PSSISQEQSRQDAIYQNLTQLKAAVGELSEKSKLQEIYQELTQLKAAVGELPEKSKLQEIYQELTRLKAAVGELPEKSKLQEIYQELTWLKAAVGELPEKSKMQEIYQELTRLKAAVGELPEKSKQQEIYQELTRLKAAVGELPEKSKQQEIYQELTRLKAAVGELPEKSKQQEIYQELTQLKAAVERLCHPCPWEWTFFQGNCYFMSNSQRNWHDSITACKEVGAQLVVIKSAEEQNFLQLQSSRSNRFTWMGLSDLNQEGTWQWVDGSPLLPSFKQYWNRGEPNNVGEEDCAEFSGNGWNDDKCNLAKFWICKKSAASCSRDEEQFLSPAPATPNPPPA
Kind of assay: DC-SIGN-Fc binding ELISA. As for the experimental part: DC-SIGN-Fc binding ELISA. The DC-SIGN-Fc chimera contained the extracellular portion of DC-SIGN (amino acids 64 to 404) fused at the C-terminus to a human immunoglobulin (Ig) G1 Fc fragment and has been previously described (Geijtenbeek et al, 2002). Human milk or human milk compounds were diluted in 0.2M NaHCO3, coated on ELISA plates (maxisorb plate; Nunc) and incubated overnight at 4° C. or 2 hours at 37° C. This was followed by blocking with TSM containing 1% BSA for 30 minutes at 37° C. before addition of soluble DC-SIGN-Fc (5 μg/ml) for 2 hours at RT, the binding was determined by incubation of a peroxidase labeled anti-IgG1 antibody for 30 minutes at RT. DC-SIGN-Fc binding specificity was determined by pre-incubation of the DC-SIGN-FC with either 50 μg/ml DC-SIGN specific mouse antibody AZN-D1 (Geijtenbeek et al, 2000 a) or 10 mM EGTA. Single-cycle-replication transmission assay. The assay was performed as previously described (Groot et al, 2005). In short mDCs and iDCs were incubated in a 96-well-plate (35−50×10^3 DC/well) with human milk for 30 minutes at 37° C. before addition of the virus (5 ng p24/well), which was incubated for 2 hours at 37° C. The DCs were washed twice with PBS before addition of 50×10^3 LuSIV cells. After 24 hours, LuSIV cells were harvested and resuspended in 50 μl lysis buffer (25 mM Tris-Cl 7.8, 2 mM DTT, 2 mM CDTA, 10% glycerol, 1% Triton X100). The cells were then incubated for 45 minutes at room temperature while shaking, followed by 10 minutes centrifugation at 3200×g. The supernatant was transferred to a white-solid 96 well plate (Corning Costar), and 150 μl of lucibuffer (100 μg/ml BSA, 6.6 mM ATP, 15 mM MgSO4, 25 mM glycylglycine) was added. 100 μl of DE(−)Luciferin (Roche Diagnostics GmbH) was injected per well (0.28 mg/ml lucibuffer excluding ATP). 50×10^3 LuSIV cells grown without DC or HIV-1 were used to obtain the background luciferase value.
DC-SIGN-Fc binding ELISA. The DC-SIGN-Fc chimera contained the extracellular portion of DC-SIGN (amino acids 64 to 404) fused at the C-terminus to a human immunoglobulin (Ig) G1 Fc fragment which has been previously described (Geijtenbeek et al, 2002). Human milk or BSSL were diluted in 0.2 M NaHCO3, coated on ELISA plates (maxisorb plate; Nunc) and incubated overnight at 4° C. or 2 hours at 37° C. This was followed by blocking with TSM containing 1% BSA for 30 minutes at 37° C. before addition of soluble DC-SIGN-Fc (5 μg/ml) for 2 hours at RT, the binding was determined by incubation of a peroxidase labeled anti-IgG1 antibody for 30 minutes at RT. DC-SIGN-Fc binding specificity was determined by pre-incubation of the DC-SIGN-Fc with either 50 μg/ml DC-SIGN specific mouse antibody AZN-D1 (Geijtenbeek et al, 2000 a) or 10 mM EGTA.
In general terms: An ELISA detects its analyte on a solid surface through an enzyme-linked reagent.

The target of assay [1] is T2, DC-SIGN on Raji-DC-SIGN cells (Homo sapiens, UniProt Q9NNX6).
T2 construct: expressed in transfected cells; host or cells: Raji cells (Raji-DC-SIGN)
T2 sequence (Q9NNX6 1-404): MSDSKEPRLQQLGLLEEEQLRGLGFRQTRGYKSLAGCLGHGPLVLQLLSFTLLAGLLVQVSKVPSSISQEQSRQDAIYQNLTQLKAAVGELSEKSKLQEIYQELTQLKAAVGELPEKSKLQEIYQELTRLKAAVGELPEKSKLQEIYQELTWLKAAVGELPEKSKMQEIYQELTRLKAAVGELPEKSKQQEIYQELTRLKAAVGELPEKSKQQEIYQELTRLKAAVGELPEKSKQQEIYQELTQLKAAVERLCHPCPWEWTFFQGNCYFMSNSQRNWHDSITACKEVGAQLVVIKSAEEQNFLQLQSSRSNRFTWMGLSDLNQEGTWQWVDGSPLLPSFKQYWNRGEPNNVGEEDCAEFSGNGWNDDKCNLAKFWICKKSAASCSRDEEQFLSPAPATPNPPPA
Kind of assay: gp120 bead adhesion assay, Raji-DC-SIGN cells. The format is cell-based. As to the method: (§1) gp120 bead adhesion assay. Beads were prepared as previously described (Geijtenbeek et al, 2000 a), in short, streptavidin was covalently coupled to Carboxylate-modified TransFluoSpheres (488/645 nm, 1.0 μm; molecular probes). The steptavidin-beads were incubated with biotinylated F(ab′)2 fragment goat-anti-human IgG (6 μg/ml; Jackson Immunoresearch) and subsequently incubated overnight with gp120-Fc chimera. Fifty thousand cells, Raji-DC-SIGN cells, immature DCs or Raji-L-SIGN cells, were pre-incubated with human milk or milk compounds, AZN-D1 (Geijtenbeek et al, 2000 a), AZN-D2 (Halary et al, 2002), EGTA or mannan for 30 minutes at RT. The ligand-coated beads (20 beads/cell) were added to the pre-incubated cells and incubated for 30 minutes at 37° C. after which the cells were washed with TSM containing 0.5% BSA. After washing, the cells were resuspended in 100 μl TSM-BSA buffer and the adhesion was measured by flow cytometry (BD Biosciences).
(§2) gp120 bead adhesion assay. Beads were prepared as previously described (Geijtenbeek et al, 2000 a), in short, streptavidin was covalently coupled to Carboxylate-modified TransFluoSpheres (488/645 nm, 1.0 μm; molecular probes). The steptavidin-beads were incubated with biotinylated F(ab′)2 fragment goat-anti-human IgG (6 μg/ml; Jackson Immunoresearch) and subsequently incubated overnight with the gp120-Fc chimera. Fifty thousand cells, Raji-DC-SIGN cells or iDCs were pre-incubated with human milk, AZN-D1 (Geijtenbeek et al, 2000 a), AZN-D2 (Halary et al, 2002), EGTA or mannan for 30 minutes at RT. The ligand-coated beads (20 beads/cell) were added to the pre-incubated cells and incubated for 30 minutes at 37° C. after which the cells were washed with TSM (20 mM Tris, 150 mM NaCl, 1 mM CaCl2, 2 mM MgCl2) containing 0.5% BSA. After washing, the cells were resuspended in 100 μl TSM-BSA buffer and the adhesion was measured by flow cytometry (BD Biosciences).

For the next assay, the target named is T3, DC-SIGN on iDCs (Homo sapiens, UniProt Q9NNX6).
T3 construct: endogenous in cells
T3 sequence (Q9NNX6 1-404): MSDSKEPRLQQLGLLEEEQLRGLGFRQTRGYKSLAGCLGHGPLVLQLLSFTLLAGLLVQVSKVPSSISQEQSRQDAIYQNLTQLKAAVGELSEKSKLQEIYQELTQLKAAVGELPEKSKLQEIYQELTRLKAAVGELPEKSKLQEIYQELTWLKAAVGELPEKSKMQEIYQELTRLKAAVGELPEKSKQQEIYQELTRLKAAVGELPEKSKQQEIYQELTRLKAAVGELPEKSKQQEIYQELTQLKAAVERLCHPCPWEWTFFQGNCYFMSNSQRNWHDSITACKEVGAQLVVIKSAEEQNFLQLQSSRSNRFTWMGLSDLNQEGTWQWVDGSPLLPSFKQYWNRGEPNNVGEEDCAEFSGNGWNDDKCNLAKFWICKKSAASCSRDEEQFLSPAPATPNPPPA
Kind of assay: gp120 bead adhesion assay, immature DCs. The format is cell-based. As to the method: as §1, §2

B1: human α-lactalbumin: major human milk protein (Sigma) (protein, UniProt P00709 20-142, looked up)
Alpha-lactalbumin: KQFTKCELSQLLKDIDGYGGIALPELICTMFHTSGYDTQAIVENNESTEYGLFQISNKLWCKSSQVPQSRNICDISCDKFLDDDITDDIMCAKKILDIKGIDYWLAHKALCTEKLEQWLCEKL
Take B1: in the assay with DC-SIGN-Fc, the “DC-SIGN-Fc binding to coated milk compound” value (“DC-SIGN-Fc binding” below) was “showed no binding”. In assay [1], the “gp120 binding to Raji-DC-SIGN” value is recorded as “None of the tested human milk compounds could inhibit gp120 binding”. In addition, in the assay with DC-SIGN on iDCs, the “gp120 binding to iDCs” value was “None of the tested human milk compounds could inhibit gp120 binding”.

B2: bovine β-casein: milk protein (NIZO Food Research) (protein, UniProt P02666 16-224, looked up)
Beta-casein: RELEELNVPGEIVESLSSSEESITRINKKIEKFQSEEQQQTEDELQDKIHPFAQTQSLVYPFPGPIPNSLPQNIPPLTQTPVVVPPFLQPEVMGVSKVKEAMAPKHKEMPFPKYPVEPFTESQSLTLTDVENLHLPLPLLQSWMHQPHQPLPPTVMFPPQSVLSLSQSKVLPVPQKAVPYPQRDMPIQAFLLYQEPVLGPVRGPFPIIV
With B2, the “DC-SIGN-Fc binding” value in the assay with DC-SIGN-Fc is “showed no binding”. In addition, the “gp120 binding to Raji-DC-SIGN” value in assay [1] is given as “None of the tested human milk compounds could inhibit gp120 binding”. Further, the “gp120 binding to iDCs” value with DC-SIGN on iDCs is listed as “None of the tested human milk compounds could inhibit gp120 binding”.

B3: human SLPI: human milk protein SLPI (Sigma) (protein, UniProt P03973 26-132, looked up)
Antileukoproteinase: SGKSFKAGVCPPKKSAQCLRYKKPECQSDWQCPGKKRCCPDTCGIKCLDPVDTPNPTRRKPGKCPVTYGQCLMLNPPNFCEMDGQCKRDLKCCMGMCGKSCVSPVKA
Take B3: in the assay with DC-SIGN-Fc, the “DC-SIGN-Fc binding” value was “showed no binding”. The “gp120 binding to Raji-DC-SIGN” value in assay [1] was “None of the tested human milk compounds could inhibit gp120 binding”. Also, in the assay with DC-SIGN on iDCs, the “gp120 binding to iDCs” value is listed as “None of the tested human milk compounds could inhibit gp120 binding”.

B4: human lactoferrin: major human milk protein (Sigma-Aldrich) (protein, UniProt P02788 20-710, looked up)
Lactotransferrin: GRRRSVQWCAVSQPEATKCFQWQRNMRKVRGPPVSCIKRDSPIQCIQAIAENRADAVTLDGGFIYEAGLAPYKLRPVAAEVYGTERQPRTHYYAVAVVKKGGSFQLNELQGLKSCHTGLRRTAGWNVPIGTLRPFLNWTGPPEPIEAAVARFFSASCVPGADKGQFPNLCRLCAGTGENKCAFSSQEPYFSYSGAFKCLRDGAGDVAFIRESTVFEDLSDEAERDEYELLCPDNTRKPVDKFKDCHLARVPSHAVVARSVNGKEDAIWNLLRQAQEKFGKDKSPKFQLFGSPSGQKDLLFKDSAIGFSRVPPRIDSGLYLGSGYFTAIQNLRKSEEEVAARRARVVWCAVGEQELRKCNQWSGLSEGSVTCSSASTTEDCIALVLKGEADAMSLDGGYVYTAGKCGLVPVLAENYKSQQSSDPDPNCVDRPVEGYLAVAVVRRSDTSLTWNSVKGKKSCHTAVDRTAGWNIPMGLLFNQTGSCKFDEYFSQSCAPGSDPRSNLCALCIGDEQGENKCVPNSNERYYGYTGAFRCLAENAGDVAFVKDVTVLQNTDGNNNEAWAKDLKLADFALLCLDGKRKPVTEARSCHLAMAPNHAVVSRMDKVERLKQVLLHQQAKFGRNGSDCPDKFCLFQSETKNLLFNDNTECLARLHGKTTYEKYLGPQYVAGITNLKKCSTSPLLEACEFLRK
Consider B4, for which the “DC-SIGN-Fc binding” value with DC-SIGN-Fc is “showed no binding”. Also, the “gp120 binding to Raji-DC-SIGN” value in assay [1] is on record as “None of the tested human milk compounds could inhibit gp120 binding”. Besides, the “gp120 binding to iDCs” value with DC-SIGN on iDCs is listed as “None of the tested human milk compounds could inhibit gp120 binding”.
